The term Kd denotes the concentration at which binding is half-saturated. The low end stands for tighter binding, the high end for weaker binding. The term koff denotes the rate constant with which the complex falls apart. Low readings indicate slow dissociation, high ones fast dissociation. For orientation: kon means the rate constant with which the complex forms. Low readings indicate slower complex formation, high ones faster complex formation. Usually IC50 stands for the concentration that gives 50% inhibition. Lower therefore signals greater potency.

Positions count from the first letter of the chain named.

For test [1], the target named is T1, human IL-17 (human, UniProt Q16552 24-155).
T1 construct: also called hIL-17; IL-17A
Nature of the test: SPR (BIACORE A100), IgG from transfection supernatant captured by anti-human Fc on CM5 chip, human IL-17 flowed over; 1:1 model with mass transport. A general note: Surface plasmon resonance follows binding to a sensor surface in real time, without labels.

Test [2] deals with T1, human IL-17. Kind of test: SPR (BIACORE), antibody captured by anti-human Fc, antigen in flow; grade: ++ strong binding, + binding, +/- close to background.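 Further: antigen injected at two-fold dilutions from 50 nM over captured antibody at 30 µL/min, dissociation followed for 10 min, kinetics fitted with a 1:1 mass-transport model.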
The target in test [3] is T1, human IL-17. Kind of test: KINEXA 3000, solution equilibrium, free antibody captured on human IL-17a beads.
Test [4] concerns the target T1, human IL-17. Nature of the test: Average KINEXA values.
Test [5] deals with T2, IL-17 antigen (APE349) linked to wasabi fluorescent protein (WFP) (labeled with Eu3+-TBP-NHS Cryptate).
T2 construct: also called labeled antigen
Kind of test: HTRF competition against the labelled second reference antibody. Background: Time-resolved FRET reads energy transfer from a long-lived donor to a nearby acceptor.

Test [6] addresses T3, human Myc-IL-17a (APE280) (human, UniProt Q16552 24-155, limits assumed).
T3 construct: not shown: Myc tag
Nature of the test: competition ELISA: plate coated with myc-IL-17a (APE280), antibody titrated against biotinylated IL-17RA (sheet: 2.1 nM, overnight incubation), bound IL-17RA detected with avidin-HRP, OD450 as % of no antibody. (In general: In an ELISA, binding on a coated surface is turned into a signal by an enzyme label.)

The target in test [7] is T1, human IL-17. Nature of the test: cell-based or functional assay.
Test [8] deals with T3, human Myc-IL-17a (APE280). Nature of the test: cell-based or functional assay.
The target of test [9] is T3, human Myc-IL-17a (APE280). Nature of the test: competition ELISA, plate-coated myc-IL-17a, biotinylated IL-17RA as competitor, IC50 comparison.

B1: 546/773 (antibody, V domains shown)
VH: EVQLVESGGGLVQPGGSLRLSCAASGFTFSSYWMSWVRQAPGKGLEWVANIKQDGSEKYYVDSVKGRFTISRDNAKNSLYLQMNSLRAEDTAVYYCARDYYDILTDYYIHYWYFDLWGRGTLVTVSS
VL: not shown
notes: IgG captured by anti-human Fc; also called Well 9
Take B1: in the test with human IL-17 [1], the Kd was more than 10 nM.

B2: 887/841 (antibody, V domains shown)
VH: B1 VH with S31D, S35D, N50S, K52R, Q53E
VL: DIQMTQSPSSLSASVGDRVTITCRASQSISSYLNWYQQKPGKAPKLLIYAASSLQSGVPSRFSGSGSGTDFTLTISSLQPEDFAVYYCQQYGSSPLTFGGGTKVEIKR
notes: Captured by anti-human Fc
Consider B2, for which the binding result in the test with human IL-17 [2] was “binds”.

B3: APE318-878/773 (antibody, V domains shown)
VH: B1 VH with S31D, S35D, K52R, Q53E
VL: not shown
notes: Human IgG (detected with anti-human IgG)
Turning to B3, the Kd with human IL-17 [3] amounted to 14.2 nM.

B4: APE860-1723/773 (antibody, V domains shown)
VH: EVQLVESGGGLVQPGGSLRLSCAASGFTFNNHWMNWVRQTPGKGLEWVAAINEDGSEKYYVGSVKVRFTISRDNAKNSLYLQMNSLRVEDTAVYYCVRDYYDILTDYYIHYWYFDLWGRGTLVTVSS
VL: not shown
notes: as for B3
As for B4, the affinity with human IL-17 [3], expressed as Kd, was 0.049 nM.

B5: APE480-1261/773 (antibody, V domains shown)
VH: B1 VH with S31D, Y32F, S35D, A40T, N50S, Q53E, G66V
VL: not shown
notes: as for B3
The molecule B5 came in with a Kd with human IL-17 [3] of 1.2 nM.

B6: APE508-1266/773 (antibody, V domains shown)
VH: B4 VH with N30S
VL: not shown
notes: as for B3
For the molecule B6, in the test with human IL-17 [4], the koff came out at 1.8e-05 s⁻¹ and the kon was 418000 M⁻¹ s⁻¹. Besides, the binding result in test [5] is “binds”. In the test with human IL-17 [3], this molecule came in with a Kd of 0.043 nM. The same molecule came in with an IC50 in [6] of 1.6 nM.

B7: APE499-1332/773 (antibody, V domains shown)
VH: B4 VH with N30S, T69I, V97A
VL: not shown
notes: as for B3
Turning to B7, the Kd with human IL-17 [3] was found to be 0.092 nM.

B8: antibody with heavy chain SEQ ID NO: 2 and light chain SEQ ID NO: 29 (antibody, V domains shown)
VH: B1 VH with Y32H, Q53E
VL: not shown
notes: IgG captured by anti-human Fc; also called Well 3
For the molecule B8, the Kd with human IL-17 [1] is more than 10 nM.

B9: APE320-847/773 (antibody, V domains shown)
VH: B1 VH with Y32H, N50S, Q53E
VL: not shown
notes: as for B3
Turning to B9, the Kd with human IL-17 [3] came out at 2.5 nM.

B10: APE470-1150/773 (antibody, V domains shown)
VH: B1 VH with S31D, Y32F, S35D, Q53E
VL: not shown
notes: as for B3
On to B10, for which, in the test with human IL-17 [3], the Kd amounted to 6.9 nM.

B11: antibody with heavy chain SEQ ID NO: 1 and light chain SEQ ID NO: 29 (antibody, V domains shown)
VH: B1 VH
VL: not shown
notes: IgG captured by anti-human Fc; also called Well 2
Regarding B11, the dissociation constant (Kd) with human IL-17 [1] was more than 10 nM.

B12: 843/773 (antibody, V domains shown)
VH: B4 VH with N30S, H32Y, T40A, A50S, E53Q, V66G
VL: not shown
notes: IgG captured by anti-human Fc; also called Well 14
As to B12, in the test with human IL-17 [1], the Kd is less than 1 nM.

B13: antibody with heavy chain SEQ ID NO: 30 and light chain SEQ ID NO: 25 (antibody, V domains shown)
VH: B4 VH with N30S, H32Y, T40A, E53Q, V66G
VL: not shown
notes: IgG captured by anti-human Fc; also called Well 15
Molecule B13 had a Kd in the test with human IL-17 [1] of less than 1 nM.

B14: 847/842 (antibody, V domains shown)
VH: B1 VH with Y32H, N50S, Q53E
VL: not shown
notes: Captured by anti-human Fc
Take B14: the binding result in the test with human IL-17 [2] is “binds”.

B15: 878/842 (antibody, V domains shown)
VH: B1 VH with S31D, S35D, K52R, Q53E
VL: not shown
notes: Captured by anti-human Fc
Take B15: the binding result with human IL-17 [2] is given as “binds”.

B16: APE265-817/773 (antibody, V domains shown)
VH: B4 VH with N30S, T40A, V66G, V97A
VL: not shown
notes: also called Well 11
In the case of B16, the results for the Kd with human IL-17 [3] and with human IL-17 [1] were 0.322 nM and less than 1 nM, respectively.

B17: APE321-844/773 (antibody, V domains shown)
VH: B1 VH with N50S
VL: not shown
notes: Human IgG; also called Well 12
On to B17, for which the figures for the Kd in the test with human IL-17 [3] and with human IL-17 [1] were 9.4 nM and less than 1 nM, respectively.

B18: APE490-1263/773 (antibody, V domains shown)
VH: B4 VH with N30S, N31D, H32F, N35D, A50S, N52K, V97A
VL: not shown
notes: as for B3
For the molecule B18, the Kd with human IL-17 [3] is 0.948 nM.

B19: APE467-1138/773 (antibody, V domains shown)
VH: B1 VH with Y32H, A40T, N50S, Q53E, G66V
VL: not shown
notes: as for B3
As to B19, the Kd in the test with human IL-17 [3] was 0.374 nM.

B20: APE498-1330/773 (antibody, V domains shown)
VH: B4 VH with N30S, V97T
VL: not shown
notes: as for B3
In the case of B20, in the test with human IL-17 [3], the Kd amounted to 0.126 nM.

B21: antibody with heavy chain SEQ ID NO: 30 and light chain SEQ ID NO: 24 (antibody, V domains shown)
VH: B4 VH with N30S, H32Y, T40A, E53Q, V66G
VL: not shown
notes: IgG captured by anti-human Fc; also called Well 8
B21 returned a Kd with human IL-17 [1] of less than 1 nM.

B22: antibody with heavy chain SEQ ID NO: 9 and light chain SEQ ID NO: 29 (antibody, V domains shown)
VH: B4 VH with N30S, H32Y, T40A, A50S, E53Q, V66G
VL: not shown
notes: IgG captured by anti-human Fc; also called Well 7
Turning to B22, the Kd with human IL-17 [1] was more than 10 nM.

B23: antibody with heavy chain SEQ ID NO: 6 and light chain SEQ ID NO: 27 (antibody, V domains shown)
VH: B1 VH with N50S
VL: not shown
notes: IgG captured by anti-human Fc; also called Well 20
Molecule B23 registered a Kd with human IL-17 [1] of more than 10 nM.

B24: APE253-771/773 (antibody, V domains shown)
VH: B1 VH with Y32H, Q53E
VL: not shown
notes: Human IgG; also called Well 10
For B24, the Kd with human IL-17 [3] is approximately 60 nM.

B25: APE319-887/773 (antibody, V domains shown)
VH: B1 VH with S31D, S35D, N50S, K52R, Q53E
VL: not shown
notes: as for B3
As to B25, binding in the test with human IL-17 [3] was characterised by a dissociation constant (Kd) of 6.1 nM.

B26: APE422-1141/773 (antibody, V domains shown)
VH: B4 VH with N30S, V97A
VL: not shown
notes: as for B3
B26: in the test with human IL-17 [4], the koff was 2.4e-05 s⁻¹ and the kon was 360000 M⁻¹ s⁻¹. Moreover, in the test with human IL-17 [3], the affinity, expressed as Kd, was 0.067 nM.

B27: APE545-1346/773 (antibody, V domains shown)
VH: B4 VH with N30S, N31S, N35S, A50S, N52K, T69I, V97A
VL: not shown
notes: as for B3
B27: in the test with human IL-17 [3], the Kd amounted to 0.27 nM.

B28: antibody with heavy chain SEQ ID NO: 4 and light chain SEQ ID NO: 29 (antibody, V domains shown)
VH: B4 VH with N30S, T40A, V66G, V97A
VL: not shown
notes: IgG captured by anti-human Fc; also called Well 4
On to B28, for which the Kd with human IL-17 [1] is less than 1 nM.

B29: APE744-1266/1540 (antibody, V domains shown)
VH: B4 VH with N30S
VL: not shown
notes: as for B3
In the test with human IL-17 [3], B29 yielded a Kd of 0.875 nM.

B30: APE755-1574/773 (antibody, V domains shown)
VH: EVQLVESGGGLVQPGGSLRLSCAASGFTFSNHWMNWVRQTPGKGLEWVAAINEDGSEKYYVGSVKVRFTISRDNAKNSLYLQMNSLRVEDTAVYYCARDYYDILTRDYYDILTDYYIHYWYFDLWGRGTLVTVSS
VL: not shown
notes: as for B3
For the molecule B30, the “IL-6 and IL-8 release from IL-17-stimulated primary human RA synovial fibroblasts, potency against the reference anti-IL-17a antibodies” value in the test with human IL-17 [7] was determined as 5 fold. Further, the “IL-8 release from human IL-17-stimulated cell lines, potency against the first reference anti-IL17a antibody” value in test [8] amounted to 2 fold. In the test with human IL-17 [4], this molecule displayed a koff of 5.9e-06 s⁻¹ and a kon of 1.2e+06 M⁻¹ s⁻¹. This molecule displayed a Kd with human IL-17 [3] of 0.0049 nM. Besides, the “fold potency in blocking IL-17/IL-17RA interaction against the first reference anti-IL-17a antibody” value in test [9] is 40 fold. The same molecule gave an IC50 in test [6] of 0.34 nM.

B31: APE857-1622/773 (antibody, V domains shown)
VH: B30 VH with A97V
VL: not shown
notes: as for B3
The molecule B31 displayed a Kd in the test with human IL-17 [3] of 0.0048 nM.

The record behind these values is US20130202591A1 (ANAPTYSBIO, published 2013).
